Patent US20190002588A1 (NATIONAL UNIVERSITY CORPORATION CHIBA UNIVERSITY, published 2019)
Positions count from the first letter of the chain named. In names and notes the source's numbering stands.

T1: human Myl9-His (human, UniProt P24844 2-172, limits assumed)
T1 construct: Made in E. coli; the GST tag was cleaved with PreScission Protease
T1 sequence: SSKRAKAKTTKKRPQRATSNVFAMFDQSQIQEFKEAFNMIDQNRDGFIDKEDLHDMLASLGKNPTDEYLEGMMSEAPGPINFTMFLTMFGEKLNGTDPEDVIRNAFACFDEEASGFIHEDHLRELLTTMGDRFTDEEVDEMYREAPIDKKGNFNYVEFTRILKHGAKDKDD

T2: human Myl12a-His (human, UniProt P19105 1-171)
T2 construct: Made in E. coli; GST tag cleaved with PreScission Protease; DTT-treated monomer
T2 sequence: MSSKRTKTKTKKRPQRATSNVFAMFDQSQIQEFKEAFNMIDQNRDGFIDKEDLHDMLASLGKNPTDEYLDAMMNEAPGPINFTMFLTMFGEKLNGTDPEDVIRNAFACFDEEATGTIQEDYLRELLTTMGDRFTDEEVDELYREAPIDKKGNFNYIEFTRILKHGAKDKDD

T3: human Myl12b-His (human, UniProt O14950 1-172)
T3 construct: Made in E. coli; GST tag cleaved with PreScission Protease; DTT-treated monomer
T3 sequence: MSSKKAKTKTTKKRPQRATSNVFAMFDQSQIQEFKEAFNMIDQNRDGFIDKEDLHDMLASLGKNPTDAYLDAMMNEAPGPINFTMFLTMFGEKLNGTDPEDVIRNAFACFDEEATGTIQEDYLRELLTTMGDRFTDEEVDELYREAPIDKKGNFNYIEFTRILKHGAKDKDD

B1: Humanized antibody No. 131 (antibody, human IgG2, kappa)
heavy: QVQLVQSGSELKKPGASVKVSCKASGYTFTDYEMHWVRQAPGQGLEWMGAIDPETGGTAYNQKFKGRFVFSLDTSVSTAYLQISSLKAEDTAVYYCADYDYDGFAYWGQGTLVTVSSASTKGPSVFPLAPCSRSTSESTAALGCLVKDYFPEPVTVSWNSGALTSGVHTFPAVLQSSGLYSLSSVVTVPSSNFGTQTYTCNVDHKPSNTKVDKTVERKCCVECPPCPAPPAAAPSVFLFPPKPKDTLMISRTPEVTCVVVDVSHEDPEVQFNWYVDGVEVHNAKTKPREEQFNSTFRVVSVLTVVHQDWLNGKEYKCKVSNKGLPAPIEKTISKTKGQPREPQVYTLPPSREEMTKNQVSLTCLVKGFYPSDIAVEWESNGQPENNYKTTPPMLDSDGSFFLYSKLTVDKSRWQQGNVFSCSVMHEALHNHYTQKSLSLSPG
light: DIVMTQSPLSLPVTPGEPASISCRSSQSLVHSNGNTYLHWYLQKPGQSPQLLISKVSNRFSGVPDRFSGSGSGTDFTLKISRVEAEDVGVYFCSQNTHVPPLTFGGGTKVEIKRTVAAPSVFIFPPSDEQLKSGTASVVCLLNNFYPREAKVQWKVDNALQSGNSQESVTEQDSKDSTYSLSSTLTLSKADYEKHKVYACEVTHQGLSSPVTKSFNRGEC
notes: human IgG2 (V234A, G237A, C-terminal Lys deleted) / kappa; Expi293F, Protein A purified; also called HK3-2/L1-4
B2: Humanized antibody No. 132 (antibody, human IgG2, kappa)
heavy: B1 heavy
light: B1 light with I2V
notes: human IgG2 (V234A, G237A, C-terminal Lys deleted) / kappa; Expi293F, Protein A purified; also called HK3-2/L1-A
B3: Humanized antibody No. 133 (antibody, human IgG2, kappa)
heavy: B1 heavy
light: B1 light with P12S, V13I, P18Q
notes: human IgG2 (V234A, G237A, C-terminal Lys deleted) / kappa; Expi293F, Protein A purified; also called HK3-2/L1-5
B4: Humanized antibody No. 134 (antibody, human IgG2, kappa, V domains shown)
VH: QVQLVQSGSELKKPGASVKVSCKASGYTFTDYEMHWVRQAPGQGLEWMGAIDPETGGTAYNQKFKGRFVFSLDTSVSTAYLQISSLKAEDTAVYYCADYDYDGFAYWGQGTLVTVSS
VL: DIVMTQTPLSSPVTLGQPASISCRSSQSLVHSNGNTYLHWYQQRPGQPPRLLISKVSNRFSGVPDRFSGSGAGTDFTLKISRVEAEDVGVYFCSQNTHVPPLTFGGGTKVEIKR
notes: human IgG2 (V234A, G237A, C-terminal Lys deleted) / kappa; Expi293F, Protein A purified; also called HK3-2/L4-2
B5: Humanized antibody No. 117 (antibody, human IgG2, kappa, V domains shown)
VH: QVQLVQSGAEVKKPGASVKVSCKASGYTFTDYEMHWVRQAPGQGLEWMGAIDPETGGTAYNQKFKGRATMTADTSTSTAYMELSSLRSEDTAVYYCADYDYDGFAYWGQGTLVTVSS
VL: DIVMTQSPLSLSITPGEQASISCRSSQSLVHSNGNTYLHWYLQKPGQSPQLLISKVSNRFSGVPDRFSGSGSGTDFTLKISRVEAEDVGVYFCSQNTHVPPLTFGGGTKVEIKR
notes: human IgG2 (V234A, G237A, C-terminal Lys deleted) / kappa; Expi293F, Protein A purified; also called HK2-6/L1-5
B6: Humanized antibody No. 123 (antibody, human IgG2, kappa, V domains shown)
VH: B5 VH with A16S, Y27G, T30S, A68V, M70I, T74K
VL: B4 VL
notes: human IgG2 (V234A, G237A, C-terminal Lys deleted) / kappa; Expi293F, Protein A purified; also called HK1-5/L4-2
B7: Humanized antibody No. 127 (antibody, human IgG2, kappa, V domains shown)
VH: B5 VH with A68V
VL: B4 VL
notes: human IgG2 (V234A, G237A, C-terminal Lys deleted) / kappa; Expi293F, Protein A purified; also called HK2-5/L4-2
B8: Humanized antibody No. 128 (antibody, human IgG2, kappa, V domains shown)
VH: B5 VH
VL: B4 VL
notes: human IgG2 (V234A, G237A, C-terminal Lys deleted) / kappa; Expi293F, Protein A purified; also called HK2-6/L4-2
B9: Humanized antibody No. 126 (antibody, human IgG2, kappa, V domains shown)
VH: B5 VH with A16S, T30S, M48I, M70I, T74K, S84R, A97T
VL: B4 VL
notes: human IgG2 (V234A, G237A, C-terminal Lys deleted) / kappa; Expi293F, Protein A purified; also called HK1-A/L4-2
B10: Humanized antibody No. 129 (antibody, human IgG2, kappa, V domains shown)
VH: B5 VH with A68V, T74K
VL: B4 VL
notes: human IgG2 (V234A, G237A, C-terminal Lys deleted) / kappa; Expi293F, Protein A purified; also called HK2-9/L4-2
B11: Humanized antibody No. 121 (antibody, human IgG2, kappa, V domains shown)
VH: B5 VH with A16S, N61A, K65Q, A68V, M70I, T74K, S84R
VL: B4 VL
notes: human IgG2 (V234A, G237A, C-terminal Lys deleted) / kappa; Expi293F, Protein A purified; also called HA1-6/L4-2
B12: Humanized antibody No. 125 (antibody, human IgG2, kappa, V domains shown)
VH: B5 VH with A16S, Y27G, T30S, M70I, T74K, S84R
VL: B4 VL
notes: human IgG2 (V234A, G237A, C-terminal Lys deleted) / kappa; Expi293F, Protein A purified; also called HK1-4/L4-2
B13: Humanized antibody No. 122 (antibody, human IgG2, kappa, V domains shown)
VH: B5 VH with A16S, N61A, K65Q, M70I, T74K, S84R
VL: B4 VL
notes: human IgG2 (V234A, G237A, C-terminal Lys deleted) / kappa; Expi293F, Protein A purified; also called HA1-4/L4-2
B14: Humanized antibody No. 124 (antibody, human IgG2, kappa, V domains shown)
VH: B5 VH with A16S, Y27G, T30S, A68V, M70I, T74K, S84R
VL: B4 VL
notes: human IgG2 (V234A, G237A, C-terminal Lys deleted) / kappa; Expi293F, Protein A purified; also called HK1-6/L4-2
B15: Humanized antibody No. 118 (antibody, human IgG2, kappa, V domains shown)
VH: B5 VH with A68V, T74K
VL: B5 VL
notes: human IgG2 (V234A, G237A, C-terminal Lys deleted) / kappa; Expi293F, Protein A purified; also called HK2-9/L1-5
B16: chimeric antibody prepared from Antibody A (antibody, human IgG2, kappa, V domains shown)
VH: QVQLQQSGAEVVRPGASVTLSCKASGYTFTDYEMHWVKQTPVHGLEWIGAIDPETGGTAYNQKFKGKAILTADKSSNTAYMELRSLTSEDSAVYYCTDYDYDGFAYWGQGTLVTVSA
VL: DVVMTQTPLSLPVSLGDQASISCRSSQSLVHSNGNTYLHWYLQKPGRSPKLLISKVSNRFSGVPDRFSGSGSGTDFTLKITRVEAEDLGVYFCSQNTHVPPLTFGAGTKLELKR
notes: VH and VL amino acid numbers 13 and 15 are deduced as for Antibody A

target: T4, human Myl3-His (human, UniProt P08590 2-195, limits assumed); assay: ELISA, human Myl3-His coated, anti-human IgG-HRP
T4 construct: Made in E. coli; the GST tag was cleaved with PreScission Protease
Protocol: (§1) The binding ability against human Myl9 was evaluated following the steps below by ELISA. Human Myl3-His and human Myl9-His were coated onto the wells of a 96-well plate (Nunc). After an overnight incubation at 4° C., the wells were blocked at room temperature for one hour with 1× Block Ace (DS Pharma Biomedical Co., Ltd.). After washing three times with 0.02% Tween 20/PBS, seven serial dilutions by six folds of the chimeric and humanized antibodies were made from a concentration of 10 μg/mL and added to the wells. After incubation at room temperature for one hour and washing three times, horseradish peroxidase-labeled anti-human IgG antibody (Jackson ImmunoResearch Laboratories) was added, and this was incubated at room temperature for one hour. After washing 5 times, TMBZ (3,3′,5,5′-tetramethylbenzidine) solution was added to the wells, and this was incubated for 5-20 minutes at room temperature. An equal amount of reaction quenching solution (2N H₂SO₄) was added to the wells, and absorbance at 450 nm was read with a microplate reader (PerkinElmer).

T4 sequence (P08590 2-195 limits assumed): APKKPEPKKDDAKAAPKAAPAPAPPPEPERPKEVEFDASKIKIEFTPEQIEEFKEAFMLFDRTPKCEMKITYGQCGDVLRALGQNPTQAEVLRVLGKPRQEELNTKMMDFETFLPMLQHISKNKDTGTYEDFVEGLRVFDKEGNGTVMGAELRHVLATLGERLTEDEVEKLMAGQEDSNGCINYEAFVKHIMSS

Binder	binding result
B1	no binding (tested: 10 µg/mL)
B2	no binding (tested: 10 µg/mL)
B3	no binding (tested: 10 µg/mL)
B4	no binding (tested: 10 µg/mL)
B5	no binding (tested: 10 µg/mL)
B6	no binding (tested: 10 µg/mL)
B7	no binding (tested: 10 µg/mL)
B8	no binding (tested: 10 µg/mL)
B9	no binding (tested: 10 µg/mL)
B10	no binding (tested: 10 µg/mL)
B11	no binding (tested: 10 µg/mL)
B12	no binding (tested: 10 µg/mL)
B13	no binding (tested: 10 µg/mL)
B14	no binding (tested: 10 µg/mL)
B15	no binding (tested: 10 µg/mL)

target: T1, human Myl9-His; assay: ELISA, human Myl9-His coated, anti-human IgG-HRP
Protocol: as §1

Binder	binding result
B16	binds
B1	binds
B2	binds
B3	binds
B4	binds
B5	binds
B6	binds
B7	binds
B8	binds
B9	binds
B10	binds
B11	binds
B12	binds
B13	binds
B14	binds
B15	binds

target: T2, human Myl12a-His; assay: ELISA, human Myl12a-His coated, anti-human IgG-HRP
Protocol: (§2) The binding ability of chimeric and humanized antibodies prepared from Antibody A against human Myl12a and Myl12b was evaluated following the steps below by ELISA. Human Myl3-His, human Myl9-His, human Myl12a-His and human Myl12b-His were coated onto the wells of a 96-well plate (Nunc), respectively. After an overnight incubation at 4° C., the wells were blocked at room temperature for one hour with 1× Block Ace (DS Pharma Biomedical Co., Ltd.). After washing three times with 0.02% Tween 20/PBS, the chimeric and humanized antibodies were diluted at the concentration of 0.01, 0.1 and 1 μg/mL, respectively and added to the wells. After incubation at room temperature for one hour and washing three times, horseradish peroxidase-labeled anti-human IgG antibody (Jackson ImmunoResearch Laboratories) was added, and this was incubated at room temperature for one hour. After washing 5 times, TMBZ (3,3′,5,5′-tetramethylbenzidine) solution was added to the wells, and this was incubated for 5-20 minutes at room temperature. An equal amount of reaction quenching solution (2N H₂SO₄) was added to the wells, and absorbance at 450 nm was read with a microplate reader (Thermo Scientific).

Binder	binding result
B16	binds
B1	binds
B2	binds
B3	binds
B4	binds
B5	binds
B6	binds
B7	binds
B8	binds
B9	binds
B10	binds
B11	binds
B12	binds
B13	binds
B14	binds
B15	binds

target: T3, human Myl12b-His; assay: ELISA, human Myl12b-His coated, anti-human IgG-HRP
Protocol: as §2

Binder	binding result
B16	binds
B1	binds
B2	binds
B3	binds
B4	binds
B5	binds
B6	binds
B7	binds
B8	binds
B9	binds
B10	binds
B11	binds
B12	binds
B13	binds
B14	binds
B15	binds

target: T4, human Myl3-His; assay: ELISA at 0.01, 0.1 and 1 µg/mL, human Myl3-His coated, anti-human IgG-HRP
Protocol: as §2

Binder	binding result
B16	no binding (tested: 1 µg/mL)
